Blank lines part the entries; values can stand above or below the binder they belong to.
Target: T1, human FcγRIIaH extracellular domain, C-terminal His-tag (human, UniProt P12318 34-217)
T1 construct: also called human FcγRIIa (type H); FcgRIIaH; not shown: His-tag added to C-terminus
T1 sequence: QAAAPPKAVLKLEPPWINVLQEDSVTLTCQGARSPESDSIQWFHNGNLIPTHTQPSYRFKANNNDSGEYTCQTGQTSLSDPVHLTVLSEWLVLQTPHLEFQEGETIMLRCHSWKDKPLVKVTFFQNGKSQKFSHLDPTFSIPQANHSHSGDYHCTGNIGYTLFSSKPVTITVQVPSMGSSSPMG
Experiment: SPR (Biacore), antibody captured, FcgR analyte, 25 C

B1: MS_M103205H795-SG1/M103202L889-SK1 (antibody, human IgG1, kappa)
heavy: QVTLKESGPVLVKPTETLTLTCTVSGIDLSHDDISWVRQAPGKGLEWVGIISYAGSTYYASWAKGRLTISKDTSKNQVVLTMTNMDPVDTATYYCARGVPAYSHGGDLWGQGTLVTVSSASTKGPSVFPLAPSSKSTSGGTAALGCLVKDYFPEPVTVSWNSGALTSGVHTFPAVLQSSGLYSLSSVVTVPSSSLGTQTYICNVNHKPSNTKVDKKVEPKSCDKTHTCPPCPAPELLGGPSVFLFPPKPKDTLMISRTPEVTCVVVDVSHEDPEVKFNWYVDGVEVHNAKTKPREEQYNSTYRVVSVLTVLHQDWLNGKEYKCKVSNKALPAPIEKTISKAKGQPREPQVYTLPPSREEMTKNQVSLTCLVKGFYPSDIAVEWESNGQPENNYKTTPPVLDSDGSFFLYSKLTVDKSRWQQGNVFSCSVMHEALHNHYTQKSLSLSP
light: DIVMTQSPATLSLSPGERATLSCTSSQSVYHANWLSWFQQKPGQPPKLLIYWASTLAYGVPSRFSGSGSGTDFTLTISSLQPEDAATYYCAGGYGGGRYAFGQGTKVEIKRTVAAPSVFIFPPSDEQLKSGTASVVCLLNNFYPREAKVQWKVDNALQSGNSQESVTEQDSKDSTYSLSSTLTLSKADYEKHKVYACEVTHQGLSSPVTKSFNRGEC
notes: Parent antibody; also called MS1032LO06-SG1
Kd: 690 nM

B5: M103205H795-MY143/M103202L889-SK1 (antibody, human IgG1, kappa)
heavy: QVTLKESGPVLVKPTETLTLTCTVSGIDLSHDDISWVRQAPGKGLEWVGIISYAGSTYYASWAKGRLTISKDTSKNQVVLTMTNMDPVDTATYYCARGVPAYSHGGDLWGQGTLVTVSSASTKGPSVFPLAPSSKSTSGGTAALGCLVKDYFPEPVTVSWNSGALTSGVHTFPAVLQSSGLYSLSSVVTVPSSSLGTQTYICNVNHKPSNTKVDKKVEPKSCDKTHTCPPCPAPELLSGPSVFLFPPKPKDTLMISRTPEVTCVVVDVSEEDPEVKFNWYVDGVEVHNAKTKPREEQYNSTYRVVSVLTVLHQDWLNGKEYKCKVSNKALPAPIEKTISKAKGQPREPQVYTLPPSREEMTKNQVSLTCLVKGFYPSDIAVEWESNGQPENNYKTTPMVLDSDGSFFLYSKLTVDKSRWQQGNVFSCSVMHEALHNHYTQKSLSLSP
light: DIVMTQSPATLSLSPGERATLSCTSSQSVYHANWLSWFQQKPGQPPKLLIYWASTLAYGVPSRFSGSGSGTDFTLTISSLQPEDAATYYCAGGYGGGRYAFGQGTKVEIKRTVAAPSVFIFPPSDEQLKSGTASVVCLLNNFYPREAKVQWKVDNALQSGNSQESVTEQDSKDSTYSLSSTLTLSKADYEKHKVYACEVTHQGLSSPVTKSFNRGEC
Kd: 37 nM

B6: M103205H795-MY209/M103202L889-SK1 (antibody, human IgG1, kappa)
heavy: QVTLKESGPVLVKPTETLTLTCTVSGIDLSHDDISWVRQAPGKGLEWVGIISYAGSTYYASWAKGRLTISKDTSKNQVVLTMTNMDPVDTATYYCARGVPAYSHGGDLWGQGTLVTVSSASTKGPSVFPLAPSSKSTSGGTAALGCLVKDYFPEPVTVSWNSGALTSGVHTFPAVLQSSGLYSLSSVVTVPSSSLGTQTYICNVNHKPSNTKVDKKVEPKSCDKTHTCPPCPAPELLNGPSVFLFPPKPKDTLMISRTPEVTCVVVDVSDEDPEVKFNWYVDGVEVHNAKTKPREELYNSTYRVVSVLTVLHQDWLNGKEYKCKVSNTALPKPIEKTISKAKGQPREPQVYTLPPSREEMTKNQVSLTCLVKGFYPSDIAVEWESNGQPENNYKTTPPVLDSDGSFFLYSKLTVDKSRWQQGNVFSCSVMHEALHNHYTQKSLSLSP
light: DIVMTQSPATLSLSPGERATLSCTSSQSVYHANWLSWFQQKPGQPPKLLIYWASTLAYGVPSRFSGSGSGTDFTLTISSLQPEDAATYYCAGGYGGGRYAFGQGTKVEIKRTVAAPSVFIFPPSDEQLKSGTASVVCLLNNFYPREAKVQWKVDNALQSGNSQESVTEQDSKDSTYSLSSTLTLSKADYEKHKVYACEVTHQGLSSPVTKSFNRGEC
Kd: 570 nM

B7: M103205H795-MY142/M103202L889-SK1 (antibody, human IgG1, kappa)
heavy: QVTLKESGPVLVKPTETLTLTCTVSGIDLSHDDISWVRQAPGKGLEWVGIISYAGSTYYASWAKGRLTISKDTSKNQVVLTMTNMDPVDTATYYCARGVPAYSHGGDLWGQGTLVTVSSASTKGPSVFPLAPSSKSTSGGTAALGCLVKDYFPEPVTVSWNSGALTSGVHTFPAVLQSSGLYSLSSVVTVPSSSLGTQTYICNVNHKPSNTKVDKKVEPKSCDKTHTCPPCPAPELLEGPSVFLFPPKPKDTLMISRTPEVTCVVVDVSEEDPEVKFNWYVDGVEVHNAKTKPREEQYNSTYRVVSVLTVLHQDWLNGKEYKCKVSNKALPAPIEKTISKAKGQPREPQVYTLPPSREEMTKNQVSLTCLVKGFYPSDIAVEWESNGQPENNYKTTPMVLDSDGSFFLYSKLTVDKSRWQQGNVFSCSVMHEALHNHYTQKSLSLSP
light: DIVMTQSPATLSLSPGERATLSCTSSQSVYHANWLSWFQQKPGQPPKLLIYWASTLAYGVPSRFSGSGSGTDFTLTISSLQPEDAATYYCAGGYGGGRYAFGQGTKVEIKRTVAAPSVFIFPPSDEQLKSGTASVVCLLNNFYPREAKVQWKVDNALQSGNSQESVTEQDSKDSTYSLSSTLTLSKADYEKHKVYACEVTHQGLSSPVTKSFNRGEC
Kd: 190 nM

The remaining lines, values ahead:

Kd: 980 nM
B2: M103205H795-MY229/M103202L889-SK1 (antibody, human IgG1, kappa)
heavy: QVTLKESGPVLVKPTETLTLTCTVSGIDLSHDDISWVRQAPGKGLEWVGIISYAGSTYYASWAKGRLTISKDTSKNQVVLTMTNMDPVDTATYYCARGVPAYSHGGDLWGQGTLVTVSSASTKGPSVFPLAPSSKSTSGGTAALGCLVKDYFPEPVTVSWNSGALTSGVHTFPAVLQSSGLYSLSSVVTVPSSSLGTQTYICNVNHKPSNTKVDKKVEPKSCDKTHTCPPCPAPELLGYPSVFLFPPKPKDTLMISRTPEVTCVVVDVSDEDPEVKFNWYVDGVEVHNAKTKPREELYNSTYRVVSVLTVLHQDWLNGKEYKCKVSNKALPKPIEKTISKAKGQPREPQVYTLPPSREEMTKNQVSLTCLVKGFYPSDIAVEWESNGQPENNYKTTPKVLDSDGSFFLYSKLTVDKSRWQQGNVFSCSVMHEALHNHYTQKSLSLSP
light: DIVMTQSPATLSLSPGERATLSCTSSQSVYHANWLSWFQQKPGQPPKLLIYWASTLAYGVPSRFSGSGSGTDFTLTISSLQPEDAATYYCAGGYGGGRYAFGQGTKVEIKRTVAAPSVFIFPPSDEQLKSGTASVVCLLNNFYPREAKVQWKVDNALQSGNSQESVTEQDSKDSTYSLSSTLTLSKADYEKHKVYACEVTHQGLSSPVTKSFNRGEC

Kd: 2300 nM
B3: M103205H795-MY219/M103202L889-SK1 (antibody, human IgG1, kappa)
heavy: QVTLKESGPVLVKPTETLTLTCTVSGIDLSHDDISWVRQAPGKGLEWVGIISYAGSTYYASWAKGRLTISKDTSKNQVVLTMTNMDPVDTATYYCARGVPAYSHGGDLWGQGTLVTVSSASTKGPSVFPLAPSSKSTSGGTAALGCLVKDYFPEPVTVSWNSGALTSGVHTFPAVLQSSGLYSLSSVVTVPSSSLGTQTYICNVNHKPSNTKVDKKVEPKSCDKTHTCPPCPAPELLGYPSVFLFPPKPKDTLMISRTPEVTCVVVDVSDEDPEVKFNWYVDGVEVHNAKTKPREEQYNSTYRVVSVLTVLHQDWLNGKEYKCKVSNKALPKPIEKTISKAKGQPREPQVYTLPPSREEMTKNQVSLTCLVKGFYPSDIAVEWESNGQPENNYKTTPPVLDSDGSFFLYSKLTVDKSRWQQGNVFSCSVMHEALHNHYTQKSLSLSP
light: DIVMTQSPATLSLSPGERATLSCTSSQSVYHANWLSWFQQKPGQPPKLLIYWASTLAYGVPSRFSGSGSGTDFTLTISSLQPEDAATYYCAGGYGGGRYAFGQGTKVEIKRTVAAPSVFIFPPSDEQLKSGTASVVCLLNNFYPREAKVQWKVDNALQSGNSQESVTEQDSKDSTYSLSSTLTLSKADYEKHKVYACEVTHQGLSSPVTKSFNRGEC

Kd: 1300 nM
B4: M103205H795-MY227/M103202L889-SK1 (antibody, human IgG1, kappa)
heavy: QVTLKESGPVLVKPTETLTLTCTVSGIDLSHDDISWVRQAPGKGLEWVGIISYAGSTYYASWAKGRLTISKDTSKNQVVLTMTNMDPVDTATYYCARGVPAYSHGGDLWGQGTLVTVSSASTKGPSVFPLAPSSKSTSGGTAALGCLVKDYFPEPVTVSWNSGALTSGVHTFPAVLQSSGLYSLSSVVTVPSSSLGTQTYICNVNHKPSNTKVDKKVEPKSCDKTHTCPPCPAPELLGYPSVFLFPPKPKDTLMISRTPEVTCVVVDVSDEDPEVKFNWYVDGVEVHNAKTKPREEQYNSTYRVVSVLTVLHQDWLNGKEYKCKVSNKALPKPIEKTISKAKGQPREPQVYTLPPSREEMTKNQVSLTCLVKGFYPSDIAVEWESNGQPENNYKTTPKVLDSDGSFFLYSKLTVDKSRWQQGNVFSCSVMHEALHNHYTQKSLSLSP
light: DIVMTQSPATLSLSPGERATLSCTSSQSVYHANWLSWFQQKPGQPPKLLIYWASTLAYGVPSRFSGSGSGTDFTLTISSLQPEDAATYYCAGGYGGGRYAFGQGTKVEIKRTVAAPSVFIFPPSDEQLKSGTASVVCLLNNFYPREAKVQWKVDNALQSGNSQESVTEQDSKDSTYSLSSTLTLSKADYEKHKVYACEVTHQGLSSPVTKSFNRGEC

Kd: 2200 nM
B8: M103205H795-MY228/M103202L889-SK1 (antibody, human IgG1, kappa)
heavy: QVTLKESGPVLVKPTETLTLTCTVSGIDLSHDDISWVRQAPGKGLEWVGIISYAGSTYYASWAKGRLTISKDTSKNQVVLTMTNMDPVDTATYYCARGVPAYSHGGDLWGQGTLVTVSSASTKGPSVFPLAPSSKSTSGGTAALGCLVKDYFPEPVTVSWNSGALTSGVHTFPAVLQSSGLYSLSSVVTVPSSSLGTQTYICNVNHKPSNTKVDKKVEPKSCDKTHTCPPCPAPELLGYPSVFLFPPKPKDTLMISRTPEVTCVVVDVSDEDPEVKFNWYVDGVEVHNAKTKPREELYNSTYRVVSVLTVLHQDWLNGKEYKCKVSNKALPKPIEKTISKAKGQPREPQVYTLPPSREEMTKNQVSLTCLVKGFYPSDIAVEWESNGQPENNYKTTPPVLDSDGSFFLYSKLTVDKSRWQQGNVFSCSVMHEALHNHYTQKSLSLSP
light: DIVMTQSPATLSLSPGERATLSCTSSQSVYHANWLSWFQQKPGQPPKLLIYWASTLAYGVPSRFSGSGSGTDFTLTISSLQPEDAATYYCAGGYGGGRYAFGQGTKVEIKRTVAAPSVFIFPPSDEQLKSGTASVVCLLNNFYPREAKVQWKVDNALQSGNSQESVTEQDSKDSTYSLSSTLTLSKADYEKHKVYACEVTHQGLSSPVTKSFNRGEC

Kd: 350 nM
B9: M103205H795-MY213/M103202L889-SK1 (antibody, human IgG1, kappa)
heavy: QVTLKESGPVLVKPTETLTLTCTVSGIDLSHDDISWVRQAPGKGLEWVGIISYAGSTYYASWAKGRLTISKDTSKNQVVLTMTNMDPVDTATYYCARGVPAYSHGGDLWGQGTLVTVSSASTKGPSVFPLAPSSKSTSGGTAALGCLVKDYFPEPVTVSWNSGALTSGVHTFPAVLQSSGLYSLSSVVTVPSSSLGTQTYICNVNHKPSNTKVDKKVEPKSCDKTHTCPPCPAPELLNGPSVFLFPPKPKDTLMISRTPEVTCVVVDVSDEDPEVKFNWYVDGVEVHNAKTKPREEQYNSTYRVVSVLTVLHQDWLNGKEYKCKVSNKALPKPIEKTISKAKGQPREPQVYTLPPSREEMTKNQVSLTCLVKGFYPSDIAVEWESNGQPENNYKTTPKVLDSDGSFFLYSKLTVDKSRWQQGNVFSCSVMHEALHNHYTQKSLSLSP
light: DIVMTQSPATLSLSPGERATLSCTSSQSVYHANWLSWFQQKPGQPPKLLIYWASTLAYGVPSRFSGSGSGTDFTLTISSLQPEDAATYYCAGGYGGGRYAFGQGTKVEIKRTVAAPSVFIFPPSDEQLKSGTASVVCLLNNFYPREAKVQWKVDNALQSGNSQESVTEQDSKDSTYSLSSTLTLSKADYEKHKVYACEVTHQGLSSPVTKSFNRGEC
